Assay results: patent US20170050988A1, “DOTAM DERIVATIVES FOR THERAPEUTIC USE” (priority 2013, published 2017)
In brackets after ≈: the same amount, converted by molar mass. Entries after “also recorded” stand apart in the source; their conditions may differ. Starred links: 1 amine or outer side, 2 acyl side, 3 side chain; linkers in the order of their positions; H or OH if unused. Positions of bridges follow the written chain, without caps; N, C: chain ends. Non-standard residues stand in square brackets, D forms with d. Residues, ends and D or L forms follow the SMILES beside them. Chains are numbered I, II in the order given. *: point of attachment. X1 = CN1/C(=C/C=C/C=C/C2=[N+](CCCCCC(=O)NCCOCCOCCNC(=O)CN3CCN(CC(=O)NCCOCCOCCN[*:1])CCN(CC(=O)NCCOCCOCCN[*:3])CCN(CC(=O)NCCOCCOCCN[*:2])CC3)c3ccc4ccccc4c3C2(C)C)C(C)(C)c2c1ccc1ccccc21; X4 = CN1/C(=C/C=C/C=C/C2=[N+](CCCCCC(=O)NCCOCCOCCN*)c3ccc4ccccc4c3C2(C)C)C(C)(C)c2c1ccc1ccccc21; Sta = CC(C)C[C@H](N)[C@@H](O)CC(=O)O; Isovaleryl = CC(C)CC(=O)*

Experiments:
[1] = in vivo; conditions: male, C57BL/6J, mouse, in vivo
Description: (§1) Measurement of In Vivo Half Life of Compounds in Mice
(§2) Male C57 BL/6J mice aged 10 weeks were purchased from Harlan Laboratories (Blackthorn, Bicester, UK). Mice were housed in groups of 6 in individually vented cages, maintained at 21±2° C. on a 12-hour light/dark cycle and with food provided ad libitum. All experimental protocols were performed in compliance with the UK Animals (Scientific Procedures) Act 1986 regulations for the handling and use of laboratory animals (Home Office project license PPL no: 70/7288).
(§3) One hundred nanomoles of each of the compounds were injected into the intra-articular space following induction of anaesthesia by gaseous anaesthetic (2% isofluorane and O2). Planar fluorescence images of the knee joints was captured at the time points indicated by capturing the emission at 700 nm for 1 min after exposure at 630 nm under gaseous anaesthesia (2.5% isofluorane and O2) in a Kodak In Vivo FX Pro (Carestream, Woodbridge, USA). Planar X-ray images were obtained by exposure to X-rays for 20 seconds for co-registration purposes.
(§4) To calculate the half lives of the compounds in the joint, fluorescence images were analysed using the Carestream MI software (version 5.1). Circular regions of interest (ROI) of 25 pixels in diameter were defined to encompass the knee joint, which was defined by co-registration of X-ray images. The mean fluorescence intensity (MFI) of the ROI was obtained. Fluorescence images shown are false coloured using the rainbow spectrum, with purple being the lowest value and red being the highest value, and the range indicated in the figures. […] All statistical analysis was carried out using the Prism Software (Graphpad, La Jolla, USA).
(§5) We further evaluated the binding capacity of the probes to cartilage in vivo using optical imaging. 0.1 μmol of each of the compounds were injected intra-articularly into the knees of mice, and in vivo fluorescent microscopy and X-ray were used to quantify localization and retention. The decay in signal was fitted to a two-phase exponential decay model to describe the rapid clearance of unbound probe from the joint and the slow clearance of bound probe from the cartilage (n=5).

[2] = system: knee joints of mice; assay: In vivo half life / retention of Cy5.5 probes in mouse knee joints (optical imaging)
Description: as §1, §2, §3, §4, §5

[3] = biological target: T1, Cathepsin D (Homo sapiens, UniProt P07339); assay: Cathepsin D enzyme assay; type: biochemical; conditions: purified Cathepsin D, pH 4.5, 37° C.; read-out: IC50
T1 construct: purchased Biomol Se-199
T1 sequence (P07339 65-412): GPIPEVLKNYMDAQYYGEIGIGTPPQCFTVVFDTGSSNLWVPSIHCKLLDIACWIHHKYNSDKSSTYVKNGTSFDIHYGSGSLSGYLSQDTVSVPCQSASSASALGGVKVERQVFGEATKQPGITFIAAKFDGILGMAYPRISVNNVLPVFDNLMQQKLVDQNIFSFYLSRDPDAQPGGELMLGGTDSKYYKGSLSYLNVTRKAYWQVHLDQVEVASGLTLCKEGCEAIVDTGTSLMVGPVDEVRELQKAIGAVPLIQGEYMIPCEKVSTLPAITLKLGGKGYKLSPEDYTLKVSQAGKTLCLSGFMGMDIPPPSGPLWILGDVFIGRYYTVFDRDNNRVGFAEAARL
Description: For quantification of Cathepsin D inhibitory activity, an enzymatic assay was used that measures the turnover of a quenched, fluorescenctly-labeled, Cathepsin D-cleavable, peptide substrate over time.
Specifically, 13 ng of purified Cathepsin D enzyme (Biomol; Cat.No. Se-199) was administered per well of a 96 well plate, substance/inhibitor of interest was added and the mixture incubated for 10 min. at 37° C. Then, the enzymatic reaction was started by addition of fluorescenctly-labeled, Cathepsin D-Substrat ([…] (7-Methoxycoumarin-4-yl)-acetyl-Pro-Leu-Gly-Leu-(3 [2,4-dinitrophenyl]-L-2,3-diaminopropionyl)-Ala-Arg-NH2 (Bachem M-1895). The reaction volume amounts to 30 μl and contains 50 mM acetic acid, 200 mM NaCl and 0.003% Brij 35 and was adjusted to pH 4.5 with acetic acid. By cleavage of the peptide chain, the […] is released and the emission of fluorescence dye is measured using excitation/emission wavelengths ([…]) on a Tecan Spectrafluor Plus—instrument at 37° C. for 10 min. For the determination of the compound dose response, a 10 mM DMSO stock solution was diluted and tested in a ten-point, three-fold dilution series run in duplicate beginning at 30 μM final concentration. Data were analyzed using a four-parameter curve fit with a fixed minimum and maximum experimentally defined as the average positive and negative controls on each plate.

[4] = system: pig articular cartilage explants; assay: Ex vivo GAG release model with pig articular cartilage explants; type: cell-based; conditions: explants pre-incubated with 1 μM inhibitor 24 h, then washed
[5] = system: pig articular cartilage explants; assay: Ex vivo binding assay with pig articular cartilage explants; conditions: 5 μM probe, 24 h incubation, washed; integrated fluorescence
Description: To evaluate the cartilage targeting affinities of these five DOTAM-derived compounds, we performed an ex vivo binding assay of these Cy 5.5-labeled probes with pig articular cartilage explants. In these ex vivo experiments, whole-depth pig articular cartilage blocks were incubated with 5 μM of each probe for 24 h, washed 3 times for 10 min each with PBS buffer at 37° C. to remove non-binding probes, then imaged using fluorescent microscopy. The intensity of the near infrared fluorescent signal from Cy 5.5 presents the relevant amount of these probes remaining in the cartilage.

[6] = Solubility in phosphate buffer; type: physicochemical; conditions: phosphate buffer at pH 7.4
[7] = 100 nmol, First Half Life (h), 100 nmol intra-articular, mouse knee, two phase decay fit of fluorescence, fast half life (t1), loss from the joint space
[8] = 100 nmol, Terminal Half Life (h), 100 nmol intra-articular, mouse knee, two phase decay fit, slower half life (t2, t1/2beta), loss of cartilage-bound compound

## CC(=O)N[C@@H](Cc1ccc(O)cc1)C(=O)N[C@@H](CCCNC(=N)N)C(=O)N[C@@H](CC(C)C)C(=O)NCC(=O)N[C@@H](CCCNC(=N)N)C(=O)N[C@@H](Cc1c[nH]c2ccccc12)C(=O)NCCOCCOCCNC(=O)CCCCC[N+]1=C(/C=C/C=C/C=C2/N(C)c3ccc4ccccc4c3C2(C)C)C(C)(C)c2c1ccc1ccccc21 [HHY-258B, AcYRLGRW-Cy5.5] (Ac-YRLGRW-X4)
[1]; First Half Life (h)
  half-life: 2 h
[1]; Terminal Half Life (h)
  half-life: 35 h

## CC(=O)N[C@@H](Cc1c[nH]c2ccccc12)C(=O)N[C@@H](Cc1ccc(O)cc1)C(=O)N[C@@H](CCCNC(=N)N)C(=O)NCC(=O)N[C@@H](CCCNC(=N)N)C(=O)N[C@@H](CC(C)C)C(=O)NCCOCCOCCNC(=O)CCCCC[N+]1=C(/C=C/C=C/C=C2/N(C)c3ccc4ccccc4c3C2(C)C)C(C)(C)c2c1ccc1ccccc21 [HHY-259B, AcWYRGRL-Cy 5.5] (Ac-WYRGRL-X4)
[1]; [7]
  half-life: 2.3 h
[1]; [8]
  half-life: 205 h

## CC(=O)N[C@@H](Cc1c[nH]c2ccccc12)C(=O)N[C@@H](Cc1ccc(O)cc1)C(=O)N[C@@H](CCCNC(=N)N)C(=O)NCC(=O)N[C@@H](CCCNC(=N)N)C(=O)N[C@@H](CC(C)C)C(=O)NCCOCCOCCNC(=O)CN1CCN(CC(=O)NCCOCCOCCNC(=O)CCCCC[N+]2=C(/C=C/C=C/C=C3/N(C)c4ccc5ccccc5c4C3(C)C)C(C)(C)c3c2ccc2ccccc32)CCN(CC(=O)NCCOCCOCCNC(=O)[C@H](CC(C)C)NC(=O)[C@H](CCCNC(=N)N)NC(=O)CNC(=O)[C@H](CCCNC(=N)N)NC(=O)[C@H](Cc2ccc(O)cc2)NC(=O)[C@H](Cc2c[nH]c3ccccc23)NC(C)=O)CCN(CC(=O)NCCOCCOCCNC(=O)[C@H](CC(C)C)NC(=O)[C@H](CCCNC(=N)N)NC(=O)CNC(=O)[C@H](CCCNC(=N)N)NC(=O)[C@H](Cc2ccc(O)cc2)NC(=O)[C@H](Cc2c[nH]c3ccccc23)NC(C)=O)CC1 [HHY-290, (AcWYRGRL)3-DOTA-Cy5.5] (I: Ac-WYRGRL / II: Ac-WYRGRL / III: Ac-WYRGRL; linker I:C-II:C-III:C via X1)
[1]; [7]
  half-life: 8.9 h
[1]; [8]
  half-life: 1280 h
[2]; 8 days after intra-articular injection, 0.1 μmol, mouse knee
  retained initial signal: 40%

## CC(=O)N[C@@H](Cc1ccc(O)cc1)C(=O)N[C@@H](CCCNC(=N)N)C(=O)N[C@@H](CC(C)C)C(=O)NCC(=O)N[C@@H](CCCNC(=N)N)C(=O)N[C@@H](Cc1c[nH]c2ccccc12)C(=O)NCCOCCOCCNC(=O)CN1CCN(CC(=O)NCCOCCOCCNC(=O)CCCCC[N+]2=C(/C=C/C=C/C=C3/N(C)c4ccc5ccccc5c4C3(C)C)C(C)(C)c3c2ccc2ccccc32)CCN(CC(=O)NCCOCCOCCNC(=O)[C@H](Cc2c[nH]c3ccccc23)NC(=O)[C@H](CCCNC(=N)N)NC(=O)CNC(=O)[C@H](CC(C)C)NC(=O)[C@H](CCCNC(=N)N)NC(=O)[C@H](Cc2ccc(O)cc2)NC(C)=O)CCN(CC(=O)NCCOCCOCCNC(=O)[C@H](Cc2c[nH]c3ccccc23)NC(=O)[C@H](CCCNC(=N)N)NC(=O)CNC(=O)[C@H](CC(C)C)NC(=O)[C@H](CCCNC(=N)N)NC(=O)[C@H](Cc2ccc(O)cc2)NC(C)=O)CC1 [HHY-293, (AcYRLGRW)3-DOTA-Cy5.5] (I: Ac-YRLGRW / II: Ac-YRLGRW / III: Ac-YRLGRW; linker I:C-II:C-III:C via X1)
[1]; First Half Life (h)
  half-life: 3 h
[1]; Terminal Half Life (h)
  half-life: 19 h
[2]; male, C57BL/6J, mouse, in vivo
  Terminal Half Life: 18.75 h

## CC(=O)N[C@@H](Cc1c[nH]c2ccccc12)C(=O)N[C@@H](Cc1ccc(O)cc1)C(=O)N[C@@H](CCCNC(=N)N)C(=O)NCC(=O)N[C@@H](CCCNC(=N)N)C(=O)N[C@@H](CC(C)C)C(=O)NCCOCCOCCNC(=O)CN1CCN(CC(=O)NCCOCCOCCNC(=O)C[C@H](O)[C@H](CC(C)C)NC(=O)[C@H](C)NC(=O)C[C@H](O)[C@H](CC(C)C)NC(=O)[C@@H](NC(=O)[C@@H](NC(=O)CC(C)C)C(C)C)C(C)C)CCN(CC(=O)NCCOCCOCCNC(=O)[C@H](CC(C)C)NC(=O)[C@H](CCCNC(=N)N)NC(=O)CNC(=O)[C@H](CCCNC(=N)N)NC(=O)[C@H](Cc2ccc(O)cc2)NC(=O)[C@H](Cc2c[nH]c3ccccc23)NC(C)=O)CCN(CC(=O)NCCOCCOCCNC(=O)[C@H](CC(C)C)NC(=O)[C@H](CCCNC(=N)N)NC(=O)CNC(=O)[C@H](CCCNC(=N)N)NC(=O)[C@H](Cc2ccc(O)cc2)NC(=O)[C@H](Cc2c[nH]c3ccccc23)NC(C)=O)CC1 [HHY-299, (AcWYRGRL)3-DOTA-Pepstatin A]
[3]
  IC50: 3.3 nM
[4]; 24 hours after stimulation at pH 5.0
  inhibition of GAG release: 34%
[4]; 48 hours after stimulation at pH 5.0
  inhibition of GAG release: 18%

## CC(=O)N[C@@H](Cc1c[nH]c2ccccc12)C(=O)N[C@@H](Cc1ccc(O)cc1)C(=O)N[C@@H](CCCNC(=N)N)C(=O)NCC(=O)N[C@@H](CCCNC(=N)N)C(=O)N[C@@H](CC(C)C)C(=O)NCCOCCOCCNC(=O)CN1CCN(CC(=O)NCCOCCOCCN)CCN(CC(=O)NCCOCCOCCN)CCN(CC(=O)NCCOCCOCCNC(=O)CCCCC[N+]2=C(/C=C/C=C/C=C3/N(C)c4ccc5ccccc5c4C3(C)C)C(C)(C)c3c2ccc2ccccc32)CC1 [HHY-312, AcWYRGRL-DOTA-Cy5.5]
[1]; First Half Life (h)
  half-life: 4 h
[1]; Terminal Half Life (h)
  half-life: 210 h
[2]; male, C57BL/6J, mouse, in vivo
  Terminal Half Life: 210.7 h
[5]
  fold mean increase of probe accumulation in cartilage vs non-targeted HHY-306: 11.2 fold
  fold mean increase of probe accumulation in cartilage vs scrambled HHY-322: 6.0 fold

## CC(=O)N[C@@H](Cc1ccc(O)cc1)C(=O)N[C@@H](CCCNC(=N)N)C(=O)N[C@@H](CC(C)C)C(=O)NCC(=O)N[C@@H](CCCNC(=N)N)C(=O)N[C@@H](Cc1c[nH]c2ccccc12)C(=O)NCCOCCOCCNC(=O)CN1CCN(CC(=O)NCCOCCOCN)CCN(CC(=O)NCCOCCOCCN)CCN(CC(=O)NCCOCCOCCNC(=O)CCCCCN2c3ccc4ccccc4c3C(C)(C)C2/C=C/C=C/C=C2/N(C)c3ccc4ccccc4c3C2(C)C)CC1 (some centres unmarked) [HHY-322, AcYRLGRW-DOTA-Cy5.5]
[1]; First Half Life (h)
  half-life: 1.67 h
[1]; Terminal Half Life (h)
  half-life: 13 h
[2]; male, C57BL/6J, mouse, in vivo
  Terminal Half Life: 12.5 h

## CC(C)CC(=O)N[C@H](C(=O)N[C@H](C(=O)N[C@@H](CC(C)C)[C@@H](O)CC(=O)N[C@@H](C)C(=O)N[C@@H](CC(C)C)[C@@H](O)CC(=O)NCCOCCOCCNC(=O)CN1CCN(CC(=O)NCCOCCOCCN)CCN(CC(=O)NCCOCCOCCN)CCN(CC(=O)NCCOCCOCCN)CC1)C(C)C)C(C)C [HHY-325]
[3]
  IC50: 2.9 nM

## CC(C)CC(=O)N[C@H](C(=O)N[C@H](C(=O)N[C@@H](CC(C)C)[C@@H](O)CC(=O)N[C@@H](C)C(=O)N[C@@H](CC(C)C)[C@@H](O)CC(=O)O)C(C)C)C(C)C [Pepstatin A, reference compound] (Isovaleryl-VV[Sta]A[Sta]-OH)
[6]
  solubility: 820 µg/mL (≈ 1200 µM)
[4]; pH 5.0
  effect on acid-stimulated GAG release / degradation (FIG. 3): no effect at all; also recorded: not effective

## AcNH-DOTA-Cy 5.5 [HHY-306]
[2]; mouse, in vivo
  First Half Life: 0.5 h
  Terminal Half Life: 9.8 h
